{"source": "paper PMC12756313", "target": "Protein A (coating of 10 μm silica microparticles) (UniProt P38507)", "experiment": "flow cytometry of beads; protein A coated on 10 μm silica particles, incubated with PE Mouse Anti-Human CD9 for 1 h, washed twice by centrifugation (200× g, 1 min); FACS Canto II, PE excitation 488 nm, filter 585/42; unlabeled proteinA-Silica particles used to set the gate"}
{"substance": "BD PE Mouse Anti-Human CD9 (Catalogue #341647, BD Biosciences) (antibody)", "values": [{"measurement": "percent of beads positive for PE", "value": 93, "unit": "%"}]}
